Experimental findings from patent publication US20220017612A1 (TILOS THERAPEUTICS, published 2022) are described below.

Assay [1] addresses human LAP-TGFβ1 overexpressed on cells (human, UniProt P01137 30-390). As to the kind of experiment: cell-based or functional assay.
The target of assay [2] is T1, fusion protein of a human IgG1 Fc domain and human LAP-TGFβ1 (human, UniProt P01137 30-390).
T1 construct: printed both as Fc-huB1 and LAP-TGFβ-Fc; also called Fc-huB1; Fc-human LAP
Kind of assay: BLI, antibody on tip, 1:1 model. On the procedure: (§1) The chimeric antibodies were biotinylated using EZ-Link SulfoNHS-LC-Biotin (ThermoFisher). A streptavidin-functionalized tip was equilibrated in binding buffer (10 mM sodium phosphate, 150 mM sodium chloride, 1% (w/v) bovine serum albumin, 0.05% (w/v) sodium azide, pH 7.4). The tip was dipped in a 10 μg/mL solution of biotinylated, chimeric anti-LAP in binding buffer for 15 seconds to load the tip with antibody. The antibody-loaded tip was then washed in binding buffer and placed in a solution containing 0-24 nM of LAP-TGFβ1 (either a fusion protein containing a human IgG1 Fc domain fused to human LAP-TGFβ1 or a murine LAP-TGFβ1 with a C-terminal polyhistidine purification tag). The antigen was allowed to bind to antibody for 5 minutes (association phase), and then the tip was moved to binding buffer (dissociation phase). The association and dissociation phases were fit to a 1:1 binding model to determine the binding rate constants.

The target of assay [3] is T2, murine LAP-TGFβ1 with a C-terminal polyhistidine purification tag (mouse, UniProt P04202 30-390).
T2 construct: also called Mouse LAP-TGFβ1
T2 sequence (P04202 30-390 limits assumed): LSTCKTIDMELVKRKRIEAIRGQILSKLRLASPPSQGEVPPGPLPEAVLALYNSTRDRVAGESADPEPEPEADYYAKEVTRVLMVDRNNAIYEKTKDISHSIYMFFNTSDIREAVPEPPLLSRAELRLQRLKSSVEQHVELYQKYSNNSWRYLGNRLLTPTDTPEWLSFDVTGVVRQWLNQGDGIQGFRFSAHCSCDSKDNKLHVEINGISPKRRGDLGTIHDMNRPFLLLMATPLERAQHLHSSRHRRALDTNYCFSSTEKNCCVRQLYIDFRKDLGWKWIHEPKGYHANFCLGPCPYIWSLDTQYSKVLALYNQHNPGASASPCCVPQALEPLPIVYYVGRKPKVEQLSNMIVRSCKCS
Kind of assay: BLI, antibody on tip, 1:1 model. On the procedure: as §1

Assay [4] addresses murine LAP-TGFβ1 overexpressed on cells (mouse, UniProt P04202 30-390). Kind of assay: cell-based or functional assay.
Assay [5] concerns the target T1, fusion protein of a human IgG1 Fc …. Kind of assay: BLI, 2:1 heterogeneous ligand model, component 2. As to the method:
The 20E6_H0.2aL1_IgG1 antibody was biotinylated using EZ-Link SulfoNHS-LC-Biotin (ThermoFisher). A streptavidin-functionalized tip was equilibrated in binding buffer (10 mM sodium phosphate, 150 mM sodium chloride, 1% (w/v) bovine serum albumin, 0.05% (w/v) sodium azide, pH 7.4) and dipped in a 10 μg/mL solution of biotinylated anti-LAP in binding buffer for 30 seconds to load the tip with antibody. The antibody-loaded tip was then washed in binding buffer and placed in a solution containing 0-24 nM of a fusion protein having a human IgG1 Fc domain fused to either human LAP-TGFβ1, human LAP-TGFβ2 or human LAP-TGFβ3. The antigen was allowed to bind to antibody for 5 minutes (association phase), and then the tip was moved to binding buffer (dissociation phase). The association and dissociation phases were fit to a 2:1 heterogenous ligand binding model to determine the binding rate constants. As shown in FIG. 21A and Table 17, 20E6_H0.2aL1_IgG1 bound with sub-nanomolar affinity to human LAP-TGFβ1, but not to human LAP-TGFβ2 (FIG. 21B) or LAP-TGFβ3 (FIG. 21C).

The target is the same in assay [6]. Kind of assay: BLI, 2:1 model, component 2. On the procedure:
(§2) A streptavidin-functionalized tip was equilibrated in binding buffer (10 mM sodium phosphate, 150 mM sodium chloride, 1% (w/v) bovine serum albumin, 0.05% (w/v) sodium azide, pH 7.4) and dipped in a 5 μg/mL solution of biotinylated antibody (i.e., 20E6_H0.2aL1_hIgG1, murine 16F4, or MHG8, a GARP-specific murine IgG2a described in Lienart et al. Science 2018; 362:952-956) in binding buffer for 30 seconds to load the tip with antibody. The antibody-loaded tip was then washed in binding buffer and placed in a solution containing 0-24 nM of a fusion protein containing a human IgG1 Fc domain fused to either human LAP-TGFβ1, the soluble GARP-LAP-TGFβ1 complex, or the soluble ECR3E-LAP-TGFβ1 complex. The antigen was allowed to bind to antibody for 5 minutes (association phase), and then the tip was moved to binding buffer (dissociation phase). The binding and dissociation data for 16F4 and MHG8 were well-fit by a 1:1 binding model. The association and dissociation phases for 20E6_H0.2aL1_hIgG1 antibody were fit to a 2:1 heterogenous ligand binding model to determine the binding rate constants.
(§3) As shown in FIG. 24 and Table 21, the 20E6_H0.2aL1_hIgG1 antibody bound to free LAP-TGFβ1 and the soluble GARP-LAP-TGFβ1 complex with nanomolar affinity, but not to the ECR3E-LAP-TGFβ1 complex. As expected, the anti-GARP antibody (MHG8) bound to the GARP-LAP-TGFβ1 complex, but not to free LAP-TGFβ1 or the ECR3E-LAP-TGFβ1 complex. 16F4 bound tightly to all three constructs.

Assay [7] has the same target. Kind of assay: BLI, 2:1 model, component 1. As to the method: as §2, §3

T1 sequence (P01137 30-390 limits assumed): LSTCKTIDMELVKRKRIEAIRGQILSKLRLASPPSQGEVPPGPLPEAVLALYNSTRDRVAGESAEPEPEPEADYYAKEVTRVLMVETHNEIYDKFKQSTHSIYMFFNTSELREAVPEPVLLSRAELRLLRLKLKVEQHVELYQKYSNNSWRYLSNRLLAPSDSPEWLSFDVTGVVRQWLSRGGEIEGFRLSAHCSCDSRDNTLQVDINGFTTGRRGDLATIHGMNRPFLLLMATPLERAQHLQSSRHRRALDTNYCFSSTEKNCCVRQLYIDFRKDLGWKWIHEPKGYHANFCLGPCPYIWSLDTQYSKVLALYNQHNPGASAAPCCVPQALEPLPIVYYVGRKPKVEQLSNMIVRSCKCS
human LAP-TGFβ1 overexpressed on cells, sequence (P01137 30-390): as the sequence (P01137 30-390 limits assumed) above
murine LAP-TGFβ1 overexpressed on cells, sequence (P04202 30-390): as the sequence (P04202 30-390 limits assumed) above

B1: 22F9_hIgG1 (antibody, V domains shown)
VH: QVQLQQPGAELVKPGASVKLSCKASGYTFTSYWMHWVKQRPGQGLEWIGMIHPNSGSTNYNEKFKSKATLTVDKSSSTAYMQLSSLTSEDSAVYYCAYYDYDGFFDVWGTGTTVTVSS
VL: DIVLTQSPASLDVSLGQRATISCRASKSVSTSGYSYMHWYQQKSGQPPKLLIYLASNLESGVPARFSGSGSGTHFTLNIHPVEEEDAATYYCQHSRELPYTFGGGTKLEIK
As to B1, in assay [1], the “IC50 of inhibition of TGFβ1 activation” value stood at 1.8 µg/mL. In assay [2], this molecule showed an equilibrium dissociation constant (Kd) of 0.76 nM, a koff of 0.000768 s⁻¹ and a kon of 1.01e+06 M⁻¹ s⁻¹. In assay [3], this molecule yielded a Kd of 0.37 nM, a koff of 0.000444 s⁻¹ and a kon of 1.21e+06 M⁻¹ s⁻¹.

B2: 20E6_H0.2aL1_hIgG1 (antibody)
heavy: not shown
light: DIQMTQSPSSLSASVGDRVTITCRASQDITNYLNWYQQKPGKAVKLLIYYTSRLHSGVPSRFSGSGSGTDYTLTISSLQPEDFATYFCQQGDTLPWTFGQGTKLEIKRTVAAPSVFIFPPSDEQLKSGTASVVCLLNNFYPREAKVQWKVDNALQSGNSQESVTEQDSKDSTYSLSSTLTLSKADYEKHKVYACEVTHQGLSSPVTKSFNRGEC
notes: also called 20E6_H0.2aL1_IgG1; humanized 20E6
On to B2, for which the “IC50 of inhibition of TGFβ1 activation” value in assay [1] was 1.3 µg/mL; in assay [4], 1.7 µg/mL. Besides, the Kd turned out to be 0.35 nM in assay [5], 0.96 nM in assay [6] and 16.2 nM in assay [7]. Further, the dissociation rate constant (koff) in assay [5] came out at 0.000409 s⁻¹; in assay [6] it was 0.00092 s⁻¹; in assay [7], 0.0406 s⁻¹. Further, the association rate constant (kon) was 1.18e+06 M⁻¹ s⁻¹ in assay [5], 960000 M⁻¹ s⁻¹ in assay [6] and 2.51e+06 M⁻¹ s⁻¹ in assay [7].
